T1: TNFR1 on THP-1 Lucia NF-κB cells (UniProt P19438 30-455, limits assumed)
T1 sequence (looked up): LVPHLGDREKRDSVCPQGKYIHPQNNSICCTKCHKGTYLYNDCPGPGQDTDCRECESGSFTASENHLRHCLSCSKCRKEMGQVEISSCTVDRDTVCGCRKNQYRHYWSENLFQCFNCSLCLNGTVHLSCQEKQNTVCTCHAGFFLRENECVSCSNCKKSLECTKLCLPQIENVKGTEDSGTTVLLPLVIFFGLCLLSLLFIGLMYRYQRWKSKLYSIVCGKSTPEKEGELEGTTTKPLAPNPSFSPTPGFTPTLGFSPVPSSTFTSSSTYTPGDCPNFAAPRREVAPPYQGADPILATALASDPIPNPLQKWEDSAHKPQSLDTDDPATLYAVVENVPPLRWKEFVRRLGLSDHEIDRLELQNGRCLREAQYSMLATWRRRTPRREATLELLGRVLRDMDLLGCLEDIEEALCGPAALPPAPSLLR

B1: SEQ ID NO. 214 (peptide)
peptide: cyclo([dbhcLeu][Nle][4Pal][Morpip6diMe]W[NMeE]N[4Pal][Trp(7-Cl)][αMeS][Phe(4-CONH2)]Y[Sar][Trp(βS-Me,7-OMe)])
modifications: reading uncertain; also: printed as cyclo(dbhcLeu-Nle-4Pal-Morpip6diMe-W-NMeE-N-4Pal-Trp7Cl-aMeS-Phe4CONH2-Y-Sar-SbMeW7OMe)
B2: SEQ ID NO. 226 (peptide)
peptide: {CH2CO}-[Ahp′]Y[AlaPiperaz][Trp(βS-Me)][dP]N[4Pal][Trp(7-Cl)][αMeS][Phe(4-COOH)][3Pal][Sar][αMeW]C-NH2
modifications: thioether N-14; reading uncertain; also: printed as cyclo(ClAc-Ahp-Y-AlaPiperaz-SbMeW-dP-N-4Pal-Trp7Cl-aMeS-Phe4COOH-3Pal-Sar-aMeW-C)-NH2
B3: SEQ ID NO. 213 (peptide)
peptide: cyclo([bhcLeu][AhpF3][4Pal][Pip(4-aza)]W[NMeE]N[4Pal][Trp(7-Cl)][αMeS][Phe(4-COOH)]Y[Sar][Trp(βS-Me,7-OMe)])
SMILES: COc1cccc2c([C@H](C)[C@@H]3NC(=O)CN(C)C(=O)[C@H](Cc4ccc(O)cc4)NC(=O)[C@H](Cc4ccc(C(=O)O)cc4)NC(=O)[C@](C)(CO)NC(=O)[C@H](Cc4c[nH]c5c(Cl)cccc45)NC(=O)[C@H](Cc4ccncc4)NC(=O)[C@H](CC(N)=O)NC(=O)[C@H](CCC(=O)O)N(C)C(=O)[C@H](Cc4c[nH]c5ccccc45)NC(=O)[C@@H]4CNCCN4C(=O)[C@H](Cc4ccncc4)NC(=O)[C@H](CCCCC(F)(F)F)NC(=O)[C@@H]4CC[C@@H](C4)NC3=O)c[nH]c12
B4: SEQ ID NO. 217 (peptide)
peptide: {CH2CO}-[Nle]H[Val(3-OH)][Trp(7-aza)][NMeE]N[4Pal][Trp(7-Cl)][αMeS][Phe(4-COOH)]Y[Sar][Trp(βS-Me,7-OMe)]C-NH2
modifications: thioether N-14
SMILES: CCCC[C@@H]1NC(=O)CSC[C@@H](C(N)=O)NC(=O)[C@H]([C@@H](C)c2c[nH]c3c(OC)cccc23)NC(=O)CN(C)C(=O)[C@H](Cc2ccc(O)cc2)NC(=O)[C@H](Cc2ccc(C(=O)O)cc2)NC(=O)[C@](C)(CO)NC(=O)[C@H](Cc2c[nH]c3c(Cl)cccc23)NC(=O)[C@H](Cc2ccncc2)NC(=O)[C@H](CC(N)=O)NC(=O)[C@H](CCC(=O)O)N(C)C(=O)[C@H](Cc2c[nH]c3ncccc23)NC(=O)[C@H](C(C)(C)O)NC(=O)[C@H](Cc2c[nH]cn2)NC1=O
B5: SEQ ID NO. 225 (peptide)
peptide: cyclo([bhcLeu][Nle][4Pal][Pip(4-aza)]W[NMeE][Dap(CONH2)][4Pal][Trp(7-Cl)][αMeS][Phe(4-COOH)]Y[Sar][Trp(βS-Me,7-OMe)])
SMILES: CCCC[C@@H]1NC(=O)[C@@H]2CC[C@@H](C2)NC(=O)[C@H]([C@@H](C)c2c[nH]c3c(OC)cccc23)NC(=O)CN(C)C(=O)[C@H](Cc2ccc(O)cc2)NC(=O)[C@H](Cc2ccc(C(=O)O)cc2)NC(=O)[C@](C)(CO)NC(=O)[C@H](Cc2c[nH]c3c(Cl)cccc23)NC(=O)[C@H](Cc2ccncc2)NC(=O)[C@H](CNC(N)=O)NC(=O)[C@H](CCC(=O)O)N(C)C(=O)[C@H](Cc2c[nH]c3ccccc23)NC(=O)[C@@H]2CNCCN2C(=O)[C@H](Cc2ccncc2)NC1=O

Numbered stars: 1 amine (or outer) side, 2 acyl side, 3 side chain; on linkers, the order of the positions; unused ones are H or OH. Bridge positions count the residues as written; N and C are the ends. Square brackets hold non-standard residues; d marks the D form. Primed or numbered codes have the meaning given here. bhcLeu = (1R,3S)-3-aminocyclopentane-1-carboxylic acid, O=C([C@@H]1CC[C@H](N[*:1])C1)[*:2]; AhpF3 = (S)-2-Amino-7,7,7-trifluoroheptanoic acid, O=C([C@H](CCCCC(F)(F)F)N[*:1])[*:2]; Trp(βS-Me,7-OMe) = COc1cccc2c([C@H](C)[C@H](N)C(=O)O)c[nH]c12; Trp(βS-Me) = C[C@@H](c1c[nH]c2ccccc12)[C@H](N)C(=O)O; Trp(7-Cl) = N[C@@H](Cc1c[nH]c2c(Cl)cccc12)C(=O)O; Phe(4-CONH2) = NC(=O)c1ccc(C[C@H](N)C(=O)O)cc1; Phe(4-COOH) = N[C@@H](Cc1ccc(C(=O)O)cc1)C(=O)O; Trp(7-aza) = N[C@@H](Cc1c[nH]c2ncccc12)C(=O)O; αMeW = C[C@](N)(Cc1c[nH]c2ccccc12)C(=O)O; Dap(CONH2) = NC(=O)NC[C@H](N)C(=O)O; Val(3-OH) = CC(C)(O)[C@H](N)C(=O)O; Pip(4-aza) = O=C(O)[C@@H]1CNCCN1; 3Pal = N[C@@H](Cc1cccnc1)C(=O)O; 4Pal = N[C@@H](Cc1ccncc1)C(=O)O; NMeE = CN[C@@H](CCC(=O)O)C(=O)O; Morpip6diMe = not defined here; dbhcLeu = not defined here; αMeS = C[C@](N)(CO)C(=O)O; Nle = CCCC[C@H](N)C(=O)O; Ahp′ = not defined here; Sar = CNCC(=O)O

This is an account of results in patent US20240287138A1 (Merck Sharp & Dohme, published 2024).

The target of this assay is T1, TNFR1 on THP-1 Lucia NF-κB cells. In words: cell-based or functional assay.
With B1, the “THP-1 IC50” value was determined as 3.7 nM.
As to B2, the “THP-1 IC50” value was determined as 10 nM.
B3: the “THP-1 IC50” value stood at 1 nM.
Take B4: the “THP-1 IC50” value was determined as 4.4 nM.
Turning to B5, the “THP-1 IC50” value stood at 0.9 nM.
